For one data set, the system named is Arabidopsis leaf discs. Nature of the data set: Subcellular localization, uptake and accumulation of flg22 in leaf discs. It counts as cell-based, Arabidopsis thaliana. The settings on record: for initial (up to 1.5 h) uptake/binding: leaf discs floated on 5 μM peptide, confocal fluorescence; for number of foci overlapping with FM4-64 / total number of green (Ff22) fluorescent foci: 18 picture areas (20 μm × 20 μm); for non-specific uptake in presence of active flg22: Col leaf discs floated overnight on 2 μM FAM–scrambled peptide or 2 μM fluorescein mixed with 1 μM TAMRA–flg22 or 2 μM flg22, n≥8. The method, then: Leaf discs were floated (abaxial side down) on 1–5 μM TAMRA–flg22 or 5–10 μM FAM–flg22 solution (in water) at room temperature for the indicated time (lower concentrations were used for overnight treatments). Inhibitors that affect endocytosis, MG132 (Sigma-Aldrich, 50 μM) or 2,3-butanedione monoxime (BDM; Sigma-Aldrich, 50 mM) were added at the same time as the peptides. FM4-64 (Invitrogen, 6–8 μM) or 2′,7′-bis-(2-carboxyethyl)-5-(and-6)-carboxyfluorescein (BCECF)-AM (cleaved by an endogenous plant esterase to BCECF, Invitrogen, 20–40 μM) mixed with peptide solution was vacuum infiltrated for 2 min into leaf discs ([Kang et al., 2014]) prior to incubation (floating on peptide/dye solution) for the indicated time. In some experiments FAM–Y-flg22 was used with results similar to FAM–flg22.
For experiments with mixed peptides, leaf discs were floated for the indicated time on 2 μM FAM–flg22, FAM–scrambled peptide or fluorescein mixed with 1 μM TAMRA–flg22. In all experiments, leaf discs were washed after treatment by gently shaking for several minutes in water and the abaxial side was imaged by confocal or epifluorescence microscopy (see ‘Microscopy’). Fluorescence intensity profiles were generated with ImageJ, as in [Spallek et al., (2013)] and [Bozkurt et al. (2015)] (see ‘Data analysis’).
Confocal images were obtained using a Zeiss LSM710 laser-scanning confocal microscope (Zeiss, Germany) as described in [Kang et al. (2014)]. Fluorescence was visualized as follows: GFP/FAM/fluorescein/BCECF excitation (ex) 488 nm/emission (em) 495–545 nm; TAMRA ex 561 nm/em 566–620 nm; FM4-64: ex 561 nm/em 686–758 nm. Green and red fluorescence was acquired for the same field using a sequential acquisition mode.
Fluorescence intensity profiles were generated with ImageJ (http://rsb.info.nih.gov/ij, last accessed 6 April 2017) using RGB Profiler and Color Profiler. Fluorescent puncta were manually counted in 20 μm × 20 μm confocal image areas as in [Irani et al. (2012)] and [Chaparro-Garcia et al., (2015)] and shown as a fraction ([Irani et al., 2012]; [Choi et al., 2013]). […]

For data set [1], the system named is Arabidopsis plants. In words: Long-distance transport after surface application of fluorescent peptide. It counts as in vivo, Arabidopsis thaliana. To be noted: 1 d. The method, then: We applied 10–20 μl of 5 μM TAMRA–flg22 (without or with inhibitors: 50 μM MG132 or 50 mM BDM) to a filter paper disc placed on the adaxial side of one leaf of in vitro-grown Arabidopsis plants and distal tissues were imaged by confocal microscopy after 1 d. For experiments with mixed peptides, 5 μM TAMRA–flg22 + 10 μM FAM–scrambled peptides were used.
(§1) [^14C]sucrose radioactivity was quantified in a scintillation counter.

The subject of data set [2] is Arabidopsis plants. In words: Long-distance transport to distal tissues after infiltration of fluorescent peptide. It counts as in vivo, Arabidopsis thaliana. The settings on record: for detection within cells in distal part of infiltrated leaf: 10 μM infiltrated, 2 h, confocal microscopy. The method, then: A 5–10 μM water solution of FAM–flg22 was pressure infiltrated with a 1 ml blunt syringe into a part or all of one leaf of 4-week-old soil-grown plants and distal tissues were examined by epifluorescence and confocal microscopy after 2 and 16 h, respectively. FAM–Y-flg22 was used in some experiments with similar results.
as §1

Data set [3] concerns detached Arabidopsis leaf. In words: Movement across a leaf blade. The settings on record: 1 h, epifluorescence. The procedure: A 5 μl drop of water solution of 10 μM FAM–flg22 or FAM–scrambled peptide was placed on the abaxial side of a detached Arabidopsis leaf in a humid chamber. […] Excess peptide was removed after 0.5 h, leaf surface was washed with water and epifluorescence images of the adaxial side were taken during the next 30 min (0.5–1 h after treatment).
The amount of peptide in plant cells was measured as total fluorescence per view field (integrated density) as in [Martins et al. (2015)], and was quantified with ImageJ in each channel in confocal and epifluorescence images. To allow comparison between experiments, fluorescence was calculated as a percentage of the signal in Col treated with TAMRA–flg22 or FAM–flg22. ^125I radioactivity in local and distal tissues was quantified from autoradiographs using a Cyclone Phosphorimager (Perkin Elmer) or in a scintillation counter (Packard Quantum Cobra D5002) and shown as percentage of total radioactivity in a plant. [^14C]sucrose radioactivity was quantified in a scintillation counter. Data from multiple experiments were analysed together using Prism software (GraphPad) (one-way ANOVA followed by Tukey’s test, or the t-test).

The test system of data set [4] is Arabidopsis plants. In words: Long-distance transport after surface application of radiolabeled peptide. It counts as in vivo, Arabidopsis thaliana. To be noted: control; 1 μl droplet of Na125I (1 × 10^6 cpm) on abaxial side of one leaf; 3 h; five plants, three experiments, P=0.7. The method, then: We applied 0.5–1 µM (specific activity 17 µCi µg^–1) ^125I-Y-flg22 or ^125I-Y-scrambled peptide in 10 mM MES pH 5.7 with 0.01% Tween-20 as a 1 µl droplet to the abaxial side of one mature leaf of 4-week-old soil-grown Arabidopsis plants and incubated for 3 h. For the control, 1 µl of 1.8 µM Na^125I (2.2 µCi µg^–1) in 5 mM NaOH–0.5 mM NaHSO2 (to prevent volatilization) with 0.005% Tween-20 was applied in the same way. Whole plants were sealed in plastic (Pinnacle Cover-All, Total Care), additionally contained in a plastic bag, and exposed for 5 d to phosphor screens for autoradiography.
as §1

Setting [5] is: Ws (lacks FLS2) leaf discs floated on 2 μM peptide 1–2 h, 16 picture areas (20 μm × 20 μm), confocal.
Setting [6] is: Ws/FLS2–GFP leaf discs floated on 2 μM peptide 1–2 h, 16 picture areas (20 μm × 20 μm), confocal.
[7] abbreviates: Col leaf discs, 5–10 μM peptide with FM4-64 (6–8 μM), 1–2 h, confocal.
[8] abbreviates: fls2 leaf discs, 5–10 μM peptide with FM4-64, 1–2 h, confocal.

Peptide text beside a SMILES is read from it. * marks the point of attachment. 5TAMRA = CN(C)c1ccc2c(c1)Oc1cc(N(C)C)ccc1C21OC(=O)c2cc(C(=O)*)ccc21; 5FAM = O=C1OC2(c3ccc(O)cc3Oc3cc(O)ccc32)c2ccc(C(=O)*)cc21; Cbz = O=C(OCc1ccccc1)*

For `CC(C)C[C@@H](C=O)NC(=O)[C@H](CC(C)C)NC(=O)[C@H](CC(C)C)NC(=O)OCc1ccccc1` [MG132, reference compound] (Cbz-Leu-Leu-Leu-aldehyde), in the data set with Arabidopsis leaf discs (Col leaf discs, 5 μM TAMRA–flg22 with 50 μM MG132 or 50 mM BDM added simultaneously, 1–2 h), the “effect of inhibitor on initial binding/uptake of TAMRA–flg22” value was “did not prevent initial peptide binding/uptake”. Also, the “effect of inhibitor on overnight accumulation of TAMRA–flg22 in vacuoles” value in the data set with Arabidopsis leaf discs (Col leaf discs, 1–2 μM TAMRA–flg22 with 50 μM MG132 or 50 mM BDM, overnight) is on record as “did not accumulate in vacuoles”. Moreover, the “effect of inhibitor on long-distance movement of TAMRA–flg22” value with Arabidopsis plants [1] (Col, 5 μM TAMRA–flg22 with 50 μM MG132 or 50 mM BDM on filter paper disc) is listed as “prevented”.

Consider `CC[C@H](C)[C@H](NC(=O)[C@H](CCC(N)=O)NC(=O)[C@H](CC(C)C)NC(=O)CNC(=O)[C@H](C)NC(=O)[C@H](C)NC(=O)[C@H](CC(=O)O)NC(=O)[C@H](CC(=O)O)NC(=O)[C@H](CCCCN)NC(=O)[C@H](C)NC(=O)[C@H](CO)NC(=O)[C@H](CC(N)=O)NC(=O)[C@@H](NC(=O)[C@H](CCCNC(=N)N)NC(=O)[C@H](CO)NC(=O)CNC(=O)[C@@H](NC(=O)[C@H](CO)NC(=O)[C@H](CC(C)C)NC(=O)[C@H](CCCNC(=N)N)NC(=O)[C@H](CCC(N)=O)NC(=O)c1ccc2c(c1)C(=O)OC21c2ccc(N(C)C)cc2Oc2cc(N(C)C)ccc21)[C@@H](C)O)[C@@H](C)CC)C(=O)N[C@@H](C)C(=O)O` [TAMRA–flg22] (5TAMRA-QRLSTGSRINSAKDDAAGLQIA-OH), for which the “overnight accumulation in plant cells” value with Arabidopsis leaf discs (Col leaf discs, 1 μM peptide with vacuolar dye BCECF (20 μM), overnight, confocal) was “accumulated in central vacuoles”; with Arabidopsis leaf discs (fls2 and bak1 versus Col, leaf discs floated on 1–2 μM peptide overnight, confocal, P<0.0002, n≥7) it was “inhibited”. Also, in the data set on Arabidopsis leaf discs (setting [5]), the “number of overlapping red and green foci” value is 0. In addition, the “total number of red (Tf22) fluorescent foci” value in the data set on Arabidopsis leaf discs (setting [5]) was found to be 5; in the data set with Arabidopsis leaf discs (setting [6]), 161. Also, the “number of foci overlapping with FLS2–GFP” value with Arabidopsis leaf discs (setting [6]) turned out to be 143. Besides, the internalization into vesicles result in the data set on Arabidopsis leaf discs (Ws/FLS2–GFP leaf discs, 2 μM peptide, 1–2 h, confocal) is reported as “found together in vesicles”. Besides, the “initial (up to 1.5 h) uptake/binding” value in the data set with Arabidopsis leaf discs (bak1 versus Col) was “not highly affected”; in the data set with Arabidopsis leaf discs (fls2 versus Col, P<0.05, n≥6) it was “reduced”. In the data set with Arabidopsis leaf discs (non-transgenic wild-type Ws control or Col fls2, 1–2 h, confocal), the “fluorescence signal inside cells” value is “No fluorescence signal was observed inside the cells”. Also, the “detection in local (treated) tissue” value in the data set with Arabidopsis plants [1] (Col, 5 μM on filter paper disc on adaxial side of one leaf of in vitro-grown plants, confocal) was “detected preferentially in the vascular region”. Moreover, the “detection in distal leaves and flowers” value in the data set on Arabidopsis plants [1] (Col, 5 μM on filter paper disc on one leaf of in vitro-grown plants, confocal) is “detected”. Moreover, in the data set on Arabidopsis plants [1] (WT Col, 5 μM TAMRA–flg22 + 10 μM FAM–scrambled peptide on filter paper disc, confocal, n=6), the “movement to distal organs from mixture of peptides” value is given as “moved, to a significant extent”.

Turning to `CC[C@H](C)[C@H](NC(=O)[C@H](CCC(N)=O)NC(=O)[C@H](CC(C)C)NC(=O)CNC(=O)[C@H](C)NC(=O)[C@H](C)NC(=O)[C@H](CC(=O)O)NC(=O)[C@H](CC(=O)O)NC(=O)[C@H](CCCCN)NC(=O)[C@H](C)NC(=O)[C@H](CO)NC(=O)[C@H](CC(N)=O)NC(=O)[C@@H](NC(=O)[C@H](CCCNC(=N)N)NC(=O)[C@H](CO)NC(=O)CNC(=O)[C@@H](NC(=O)[C@H](CO)NC(=O)[C@H](CC(C)C)NC(=O)[C@H](CCCNC(=N)N)NC(=O)[C@H](CCC(N)=O)NC(=O)c1ccc2c(c1)C(=O)OC21c2ccc(O)cc2Oc2cc(O)ccc21)[C@@H](C)O)[C@@H](C)CC)C(=O)N[C@@H](C)C(=O)O` [FAM–flg22] (5FAM-QRLSTGSRINSAKDDAAGLQIA-OH), the “number of foci overlapping with FM4-64” value in the data set with Arabidopsis leaf discs (setting [7]) came out at 212; in the data set with Arabidopsis leaf discs (setting [8]) it was 2. Moreover, the “total number of green (Ff22) fluorescent foci” value in the data set with Arabidopsis leaf discs (setting [7]) is 217; in the data set on Arabidopsis leaf discs (setting [8]), 10. The “co-localization with endocytic dye FM4-64” value in the data set on Arabidopsis leaf discs (Col leaves, 5–10 μM peptide, 1–2 h incubation, confocal) was “co-localized with a subset of vesicles and MVBs”. In addition, the signal in cells result in the data set with Arabidopsis leaf discs (fls2 mutant, 5–10 μM peptide, 1–2 h incubation, confocal) was “not visible”. For the same compound, the “detection within cells in distal part of infiltrated leaf” value with Arabidopsis plants [2] (Col) is “present within vascular cells”; with Arabidopsis plants [2] (fls2), “not detected within cells”. In addition, the “detection in distal orthostichous leaves” value in the data set on Arabidopsis plants [2] (Col, 5–10 μM infiltrated into part of one leaf of soil-grown plants, 16 h, epifluorescence) is “detected”. The “detection in distal leaves” value in the data set on Arabidopsis plants [2] (fls2, 5–10 μM infiltrated into one leaf, 16 h, epifluorescence) is reported as “not observed”. For the same compound, the “detection on adaxial side of leaf after application to abaxial side” value in data set [3] (Col detached leaf, 5 μl drop of 10 μM peptide, three experiments, n≥5) is listed as “detected”. Also, the “mobility across a leaf blade” value in data set [3] (fls2 and bak1 mutants, 10 μM peptide drop) was “reduced”.

Regarding `[125I-].[Na+]` [Na^125I], in the data set on Arabidopsis plants [4], the “movement to distal leaves, Col versus fls2” value was “the same in Col and fls2”.

Take `CC[C@H](C)[C@H](NC(=O)CNC(=O)c1ccc2c(c1)C(=O)OC21c2ccc(O)cc2Oc2cc(O)ccc21)C(=O)N[C@H](C(=O)N[C@@H](C)C(=O)N[C@@H](CO)C(=O)N[C@@H](CCCCN)C(=O)N[C@@H](C)C(=O)N[C@@H](CC(C)C)C(=O)NCC(=O)N[C@@H](C)C(=O)N[C@@H](CC(=O)O)C(=O)N[C@@H](CC(C)C)C(=O)N[C@@H](CCCNC(=N)N)C(=O)N[C@@H](CCCNC(=N)N)C(=O)N[C@H](C(=O)N[C@@H](CC(N)=O)C(=O)N[C@@H](CCC(N)=O)C(=O)N[C@@H](CO)C(=O)N[C@@H](C)C(=O)N[C@@H](CO)C(=O)N[C@@H](CCC(N)=O)C(=O)N[C@@H](CC(=O)O)C(=O)O)[C@@H](C)CC)[C@@H](C)O` [FAM–scrambled peptide] (5FAM-GITASKALGADLRRINQSASQD-OH): the “non-specific uptake in presence of active flg22” value in the data set on Arabidopsis leaf discs (confocal) is recorded as “not observed”. Besides, the “detection within cells in distal part of infiltrated leaf” value in the data set on Arabidopsis plants [2] (Col) is “not detected within cells”.

Regarding `O=C1OC2(c3ccc(O)cc3Oc3cc(O)ccc32)c2ccccc21` [fluorescein, reference compound], in the data set on Arabidopsis leaf discs (confocal), the “non-specific uptake in presence of active flg22” value is on record as “did not induce uptake”.

The record behind these values is paper PMC5444442, “Flagellin peptide flg22 gains access to long-distance trafficking in Arabidopsis via its receptor, FLS2” (Journal of Experimental Botany, 2017).
